Experimental data published in patent US20250129174A1 (LTZ THERAPEUTICS, published 2025).

B1: 4-1BB-2×CCR8-2 (HC) BsAb (bispecific antibody, human IgG1, kappa)
heavy: not shown
light: DIVMTQTPLSLSVTPGQPASISCRSSQSLFHSSGNTYLHWYLQKPGQPPQLLIYKVSNRFSGVPDRFSGSGSGTDFTLKISRVEAEDVGVYYCSQSTHVPFTFGQGTKLEIKRTVAAPSVFIFPPSDEQLKSGTASVVCLLNNFYPREAKVQWKVDNALQSGNSQESVTEQDSKDSTYSLSSTLTLSKADYEKHKVYACEVTHQGLSSPVTKSFNRGEC
notes: The light chain is the CCR8-2 kappa light chain; also called 4-1BB-2×CCR8-2 (HC) bispecific antibody
B2: 4-1BB-2×CCR8-2 (LC1) BsAb (bispecific antibody, human IgG1, kappa)
heavy: not shown
light: DVVLTQSPLSLPVTLGQPASISCRSSQSLLDSDGNTYLYWFQQRPGQSPRRLIYLVSNLGSGVPDRFSGSGSGTDFTLKISRVEAEDVGVYYCMQPTHAPYTFGQGTKLEIKGGGGSGGGGSGGGGSGGGGSEVQLVQSGAEVKKPGSSVKVSCKASDYTFNDYWVSWVRQAPGQGLEWIGEIYPNSGATNFNGKFRGRATLTVDNSASTAYMELSSLRSEDTAVYYCTREYTRDWFAYWGQGTLVTVSSGGGGSGGGGSGGGGSDIVMTQTPLSLSVTPGQPASISCRSSQSLFHSSGNTYLHWYLQKPGQPPQLLIYKVSNRFSGVPDRFSGSGSGTDFTLKISRVEAEDVGVYYCSQSTHVPFTFGQGTKLEIKRTVAAPSVFIFPPSDEQLKSGTASVVCLLNNFYPREAKVQWKVDNALQSGNSQESVTEQDSKDSTYSLSSTLTLSKADYEKHKVYACEVTHQGLSSPVTKSFNRGEC
notes: The light chain is the 4-1BB-2 scFv (VL-linker-VH) joined by a linker to the N-terminus of the CCR8-2 kappa light chain; also called 4-1BB-2×CCR8-2 (LC1) bispecific antibody
B3: 4-1BB-2×CCR8-2 (LC2) BsAb (bispecific antibody, human IgG1, kappa)
heavy: not shown
light: DIVMTQTPLSLSVTPGQPASISCRSSQSLFHSSGNTYLHWYLQKPGQPPQLLIYKVSNRFSGVPDRFSGSGSGTDFTLKISRVEAEDVGVYYCSQSTHVPFTFGQGTKLEIKRTVAAPSVFIFPPSDEQLKSGTASVVCLLNNFYPREAKVQWKVDNALQSGNSQESVTEQDSKDSTYSLSSTLTLSKADYEKHKVYACEVTHQGLSSPVTKSFNRGECGGGGSGGGGSGGGGSDVVLTQSPLSLPVTLGQPASISCRSSQSLLDSDGNTYLYWFQQRPGQSPRRLIYLVSNLGSGVPDRFSGSGSGTDFTLKISRVEAEDVGVYYCMQPTHAPYTFGQGTKLEIKGGGGSGGGGSGGGGSGGGGSEVQLVQSGAEVKKPGSSVKVSCKASDYTFNDYWVSWVRQAPGQGLEWIGEIYPNSGATNFNGKFRGRATLTVDNSASTAYMELSSLRSEDTAVYYCTREYTRDWFAYWGQGTLVTVSS
notes: The light chain is the CCR8-2 kappa light chain with the 4-1BB-2 scFv (VL-linker-VH) joined by a linker to its C-terminus; also called 4-1BB-2×CCR8-2 (LC2) bispecific antibody

Tests used:
[1] = biological target: T1, human CCR8 (human, UniProt P51685 1-355); test: flow cytometry on CHO cells expressing human CCR8, MFI of PE
T1 construct: whole, on cells; The construct expressed in the CHO cells is not described further; also called hCCR8; C-C motif chemokine receptor 8
T1 sequence (P51685 whole entry): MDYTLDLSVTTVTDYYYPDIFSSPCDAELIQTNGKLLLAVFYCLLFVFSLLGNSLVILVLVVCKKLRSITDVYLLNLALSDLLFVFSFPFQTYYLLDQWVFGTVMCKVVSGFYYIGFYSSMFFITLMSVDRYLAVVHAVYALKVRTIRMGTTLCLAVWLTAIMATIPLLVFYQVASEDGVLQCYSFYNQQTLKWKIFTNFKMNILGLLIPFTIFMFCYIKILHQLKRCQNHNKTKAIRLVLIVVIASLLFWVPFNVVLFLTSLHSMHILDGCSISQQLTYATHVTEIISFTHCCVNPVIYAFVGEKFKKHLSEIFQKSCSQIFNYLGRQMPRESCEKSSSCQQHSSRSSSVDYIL
Procedure: Binding abilities of 4-1BB×CCR8 bispecific antibodies to CHO cells expressing human CCR8 were evaluated. About 50,000 CHO cells expressing human CCR8 were incubated with serially diluted antibodies (4-1BB-2×CCR8-2 (LC1) BsAb, 4-1BB-2×CCR8-2 (LC2) BsAb and 4-1BB-2×CCR8-2 (HC) BsAb) in FACS buffer (PBS+0.5% BSA) for 30 minutes on ice. After incubation, cells were washed twice and detected with […] The mean fluorescence intensity (MFI of PE) of each antibody was determined and plotted using GraphPad Prism software (Version 9.4.1; GraphPad Software Inc.). As shown in FIGS. 13A-13B, all the three 4-1BB×CCR8 bispecific antibodies bind to CHO cells expressing human CCR8 very well.

[2] = biological target: T2, human 4-1BB (human, UniProt Q07011 24-255); test: flow cytometry on CHO cells expressing human 4-1BB, anti-human IgG PE secondary antibody, percent of positive cells
T2 construct: whole, on cells; The construct expressed in the CHO cells is not described further; also called h4-1BB; CD137
T2 sequence (Q07011 24-255): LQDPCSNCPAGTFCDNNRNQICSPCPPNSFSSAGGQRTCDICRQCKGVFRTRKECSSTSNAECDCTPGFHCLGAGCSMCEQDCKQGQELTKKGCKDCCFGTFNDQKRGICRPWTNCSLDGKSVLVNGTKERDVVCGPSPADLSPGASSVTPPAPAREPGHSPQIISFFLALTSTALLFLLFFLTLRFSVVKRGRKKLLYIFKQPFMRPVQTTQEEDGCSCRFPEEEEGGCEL
Procedure: Binding abilities of 4-1BB×CCR8 bispecific antibodies (BsAb) to CHO cells expressing human 4-1BB were evaluated. About 50,000 CHO cells expressing human 4-1BB were incubated with serially diluted antibodies (4-1BB-2×CCR8-2 (LC1) BsAb, 4-1BB-2×CCR8-2 (LC2) BsAb, and 4-1BB-2×CCR8-2 (HC) BsAb) in FACS buffer (PBS+0.5% BSA) for 30 minutes on ice. After incubation, cells were washed twice and detected with anti-human IgG PE secondary antibody (Jackson ImmunoResearch, Cat. #: 109-116-170). […] As shown in FIGS. 12A-12B, all the three 4-1BB×CCR8 bispecific antibodies bind to CHO cells expressing human 4-1BB very well.

[3] = biological target: T1, human CCR8; test: flow cytometry on CHO cells expressing human CCR8, percent of positive cells
Procedure: Binding abilities of 4-1BB×CCR8 bispecific antibodies to CHO cells expressing human CCR8 were evaluated. About 50,000 CHO cells expressing human CCR8 were incubated with serially diluted antibodies (4-1BB-2×CCR8-2 (LC1) BsAb, 4-1BB-2×CCR8-2 (LC2) BsAb and 4-1BB-2×CCR8-2 (HC) BsAb) in FACS buffer (PBS+0.5% BSA) for 30 minutes on ice. […] As shown in FIGS. 13A-13B, all the three 4-1BB×CCR8 bispecific antibodies bind to CHO cells expressing human CCR8 very well.

Row | Binder | binding result [1] | EC50 (read off the curve) [2] [nM] | EC50 (read off the curve) [1] [nM] | EC50 (read off the curve) [3] [nM]
1 | B1 | binds | ~0.7 | – | –
2 | B2 | – | ~0.06 | ~2 | ~0.3
3 | B3 | binds | ~0.7 | – | –
